The text below walks through data of patent US20210269521A1 (L AND L BIOPHARMA, published 2021).

B1: bispecific antibody LB243 (bispecific antibody, human IgG4 S228P, kappa)
light: DIQMTQSPSSLSASVGDRVTITCHASQGISSNIGWLQQKPGKAFKGLIYQGSNLEDGVPSRFSGSGSGADYTLTISSLQPEDFATYYCVQFAQFPPTFGQGTKLEIKGGGGSGGGGSGGGGSEVQLVESGGGLVKPGGSLRLSCAASGFTFSDYYMAWVRQAPGKGLEWVANINYDGSNTYYLDSLKSRFTISRDNAKNSLYLQMNSLRAEDTAVYYCARGLYYYGGNYFAYWGQGTLVTVSSGGGGSGGGGSGGGGSEIVLTQSPATLSLSPGERATLSCRASKGVSTSGYSYLHWYQQKPGQAPRLLIYLASYLESGVPARFSGSGSGTDFTLTISSLEPEDFAVYYCQHSRDLPLTFGGGTKVEIKRTVAAPSVFIFPPSDEQLKSGTASVVCLLNNFYPREAKVQWKVDNALQSGNSQESVTEQDSKDSTYSLSSTLTLSKADYEKHKVYACEVTHQGLSSPVTKSFNRGECGGGGSGGGGSGGGGSEVQLVESGGGLVKPGGSLRLSCAASGFTFSDYYMAWVRQAPGKGLEWVANINYDGSNTYYLDSLKSRFTISRDNAKNSLYLQMNSLRAEDTAVYYCARGLYYYGGNYFAYWGQGTLVTVSSGGGGSGGGGSGGGGSDIQMTQSPSSLSASVGDRVTITCHASQGISSNIGWLQQKPGKAFKGLIYQGSNLEDGVPSRFSGSGSGADYTLTISSLQPEDFATYYCVQFAQFPPTFGQGTKLEIK
heavy: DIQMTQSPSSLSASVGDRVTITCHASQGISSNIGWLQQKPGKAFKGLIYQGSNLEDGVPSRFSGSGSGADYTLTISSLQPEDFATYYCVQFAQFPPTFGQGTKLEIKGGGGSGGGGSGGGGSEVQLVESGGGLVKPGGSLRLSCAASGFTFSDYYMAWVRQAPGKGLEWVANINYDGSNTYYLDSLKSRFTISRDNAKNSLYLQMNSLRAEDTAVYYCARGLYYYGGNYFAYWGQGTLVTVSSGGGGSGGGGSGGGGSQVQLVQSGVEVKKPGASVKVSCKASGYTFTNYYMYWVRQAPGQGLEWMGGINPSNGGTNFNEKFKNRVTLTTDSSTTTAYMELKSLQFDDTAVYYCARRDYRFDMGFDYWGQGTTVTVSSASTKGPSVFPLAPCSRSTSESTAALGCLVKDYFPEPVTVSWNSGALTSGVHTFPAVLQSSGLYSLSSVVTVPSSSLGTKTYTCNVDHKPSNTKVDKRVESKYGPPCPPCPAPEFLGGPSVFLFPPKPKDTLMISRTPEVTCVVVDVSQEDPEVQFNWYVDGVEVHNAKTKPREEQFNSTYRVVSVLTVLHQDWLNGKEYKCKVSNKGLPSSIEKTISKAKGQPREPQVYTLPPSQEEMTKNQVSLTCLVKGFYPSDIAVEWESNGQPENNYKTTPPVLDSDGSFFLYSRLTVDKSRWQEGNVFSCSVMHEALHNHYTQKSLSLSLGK
B2: bispecific antibody LB1412 (bispecific antibody, human IgG4 S228P, kappa)
light: EIVLTQSPATLSLSPGERATLSCRASKGVSTSGYSYLHWYQQKPGQAPRLLIYLASYLESGVPARFSGSGSGTDFTLTISSLEPEDFAVYYCQHSRDLPLTFGGGTKVEIKRTVAAPSVFIFPPSDEQLKSGTASVVCLLNNFYPREAKVQWKVDNALQSGNSQESVTEQDSKDSTYSLSSTLTLSKADYEKHKVYACEVTHQGLSSPVTKSFNRGEC
heavy: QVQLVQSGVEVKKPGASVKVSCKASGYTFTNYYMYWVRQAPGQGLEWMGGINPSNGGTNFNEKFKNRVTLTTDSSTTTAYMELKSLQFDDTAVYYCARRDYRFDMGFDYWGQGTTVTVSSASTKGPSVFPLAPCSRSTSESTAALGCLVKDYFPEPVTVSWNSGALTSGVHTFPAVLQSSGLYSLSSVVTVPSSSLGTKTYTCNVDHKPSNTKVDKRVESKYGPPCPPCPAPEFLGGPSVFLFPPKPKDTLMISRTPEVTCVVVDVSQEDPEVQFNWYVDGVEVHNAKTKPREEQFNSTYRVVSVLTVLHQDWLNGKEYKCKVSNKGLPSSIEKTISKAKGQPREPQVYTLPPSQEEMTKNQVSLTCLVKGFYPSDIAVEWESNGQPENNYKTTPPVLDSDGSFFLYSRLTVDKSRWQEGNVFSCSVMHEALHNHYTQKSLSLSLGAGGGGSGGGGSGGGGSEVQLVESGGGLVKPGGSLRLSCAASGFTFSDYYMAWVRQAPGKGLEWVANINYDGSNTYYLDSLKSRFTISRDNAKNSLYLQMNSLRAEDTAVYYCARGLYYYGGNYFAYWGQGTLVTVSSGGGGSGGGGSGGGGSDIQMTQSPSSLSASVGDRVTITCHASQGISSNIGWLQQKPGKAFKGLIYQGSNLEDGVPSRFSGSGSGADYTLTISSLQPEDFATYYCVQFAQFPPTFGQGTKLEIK
B3: bispecific antibody LB1414 (bispecific antibody, human IgG4 S228P, kappa)
light: EIVLTQSPATLSLSPGERATLSCRASKGVSTSGYSYLHWYQQKPGQAPRLLIYLASYLESGVPARFSGSGSGTDFTLTISSLEPEDFAVYYCQHSRDLPLTFGGGTKVEIKRTVAAPSVFIFPPSDEQLKSGTASVVCLLNNFYPREAKVQWKVDNALQSGNSQESVTEQDSKDSTYSLSSTLTLSKADYEKHKVYACEVTHQGLSSPVTKSFNRGECGGGGSGGGGSGGGGSEVQLVESGGGLVKPGGSLRLSCAASGFTFSDYYMAWVRQAPGKGLEWVANINYDGSNTYYLDSLKSRFTISRDNAKNSLYLQMNSLRAEDTAVYYCARGLYYYGGNYFAYWGQGTLVTVSSGGGGSGGGGSGGGGSDIQMTQSPSSLSASVGDRVTITCHASQGISSNIGWLQQKPGKAFKGLIYQGSNLEDGVPSRFSGSGSGADYTLTISSLQPEDFATYYCVQFAQFPPTFGQGTKLEIK
heavy: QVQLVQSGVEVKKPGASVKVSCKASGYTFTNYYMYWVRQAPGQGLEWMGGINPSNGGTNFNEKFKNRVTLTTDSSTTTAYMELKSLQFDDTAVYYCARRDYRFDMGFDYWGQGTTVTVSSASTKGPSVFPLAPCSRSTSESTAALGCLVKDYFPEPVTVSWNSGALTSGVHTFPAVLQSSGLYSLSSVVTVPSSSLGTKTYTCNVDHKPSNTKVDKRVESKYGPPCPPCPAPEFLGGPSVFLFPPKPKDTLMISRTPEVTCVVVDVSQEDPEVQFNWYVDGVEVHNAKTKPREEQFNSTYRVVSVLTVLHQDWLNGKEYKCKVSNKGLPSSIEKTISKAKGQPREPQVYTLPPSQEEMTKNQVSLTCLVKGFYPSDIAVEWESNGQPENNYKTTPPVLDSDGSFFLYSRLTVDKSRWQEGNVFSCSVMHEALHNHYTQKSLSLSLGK
B4: bispecific antibody LB242 (bispecific antibody, human IgG4 S228P, kappa)
light: B3 light
heavy: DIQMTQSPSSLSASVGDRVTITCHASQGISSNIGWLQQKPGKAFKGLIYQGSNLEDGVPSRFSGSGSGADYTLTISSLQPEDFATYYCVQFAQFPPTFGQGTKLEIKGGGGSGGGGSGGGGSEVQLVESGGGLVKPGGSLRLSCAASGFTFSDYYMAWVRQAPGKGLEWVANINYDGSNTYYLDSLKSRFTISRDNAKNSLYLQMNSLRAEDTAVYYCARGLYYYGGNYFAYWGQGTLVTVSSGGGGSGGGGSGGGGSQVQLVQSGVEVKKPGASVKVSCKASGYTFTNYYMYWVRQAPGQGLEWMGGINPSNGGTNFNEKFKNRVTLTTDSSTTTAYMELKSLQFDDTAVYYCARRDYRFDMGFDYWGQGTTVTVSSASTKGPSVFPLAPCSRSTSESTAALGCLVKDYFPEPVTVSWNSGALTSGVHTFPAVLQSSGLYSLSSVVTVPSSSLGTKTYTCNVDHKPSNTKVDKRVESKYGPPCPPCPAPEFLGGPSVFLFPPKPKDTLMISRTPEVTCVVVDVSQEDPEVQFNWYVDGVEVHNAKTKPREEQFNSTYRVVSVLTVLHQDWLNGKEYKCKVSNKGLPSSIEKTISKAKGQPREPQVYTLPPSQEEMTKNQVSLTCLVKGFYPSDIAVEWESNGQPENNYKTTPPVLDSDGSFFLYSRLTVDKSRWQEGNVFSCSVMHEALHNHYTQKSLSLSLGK
B5: bispecific antibody LB1413 (bispecific antibody, human IgG4 S228P, kappa)
light: DIQMTQSPSSLSASVGDRVTITCHASQGISSNIGWLQQKPGKAFKGLIYQGSNLEDGVPSRFSGSGSGADYTLTISSLQPEDFATYYCVQFAQFPPTFGQGTKLEIKGGGGSGGGGSGGGGSEVQLVESGGGLVKPGGSLRLSCAASGFTFSDYYMAWVRQAPGKGLEWVANINYDGSNTYYLDSLKSRFTISRDNAKNSLYLQMNSLRAEDTAVYYCARGLYYYGGNYFAYWGQGTLVTVSSGGGGSGGGGSGGGGSEIVLTQSPATLSLSPGERATLSCRASKGVSTSGYSYLHWYQQKPGQAPRLLIYLASYLESGVPARFSGSGSGTDFTLTISSLEPEDFAVYYCQHSRDLPLTFGGGTKVEIKRTVAAPSVFIFPPSDEQLKSGTASVVCLLNNFYPREAKVQWKVDNALQSGNSQESVTEQDSKDSTYSLSSTLTLSKADYEKHKVYACEVTHQGLSSPVTKSFNRGEC
heavy: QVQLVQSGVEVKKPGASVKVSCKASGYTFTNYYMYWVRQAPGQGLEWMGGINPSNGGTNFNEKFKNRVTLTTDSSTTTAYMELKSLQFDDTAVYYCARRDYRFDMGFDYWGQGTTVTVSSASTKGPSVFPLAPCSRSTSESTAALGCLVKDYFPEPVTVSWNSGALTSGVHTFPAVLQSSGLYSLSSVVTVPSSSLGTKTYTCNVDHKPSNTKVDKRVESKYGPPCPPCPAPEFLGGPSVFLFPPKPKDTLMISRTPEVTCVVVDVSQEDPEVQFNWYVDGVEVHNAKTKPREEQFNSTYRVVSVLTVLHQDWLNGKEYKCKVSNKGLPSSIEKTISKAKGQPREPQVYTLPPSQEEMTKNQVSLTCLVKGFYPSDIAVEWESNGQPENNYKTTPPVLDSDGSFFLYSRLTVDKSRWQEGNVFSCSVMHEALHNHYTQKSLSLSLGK
notes: ab6VL-(G4S)3-ab6VH-(G4S)3-PemVL-κ with PemVH-hIgG4
B6: bispecific antibody LB244 (bispecific antibody, human IgG4 S228P, kappa)
light: B5 light
heavy: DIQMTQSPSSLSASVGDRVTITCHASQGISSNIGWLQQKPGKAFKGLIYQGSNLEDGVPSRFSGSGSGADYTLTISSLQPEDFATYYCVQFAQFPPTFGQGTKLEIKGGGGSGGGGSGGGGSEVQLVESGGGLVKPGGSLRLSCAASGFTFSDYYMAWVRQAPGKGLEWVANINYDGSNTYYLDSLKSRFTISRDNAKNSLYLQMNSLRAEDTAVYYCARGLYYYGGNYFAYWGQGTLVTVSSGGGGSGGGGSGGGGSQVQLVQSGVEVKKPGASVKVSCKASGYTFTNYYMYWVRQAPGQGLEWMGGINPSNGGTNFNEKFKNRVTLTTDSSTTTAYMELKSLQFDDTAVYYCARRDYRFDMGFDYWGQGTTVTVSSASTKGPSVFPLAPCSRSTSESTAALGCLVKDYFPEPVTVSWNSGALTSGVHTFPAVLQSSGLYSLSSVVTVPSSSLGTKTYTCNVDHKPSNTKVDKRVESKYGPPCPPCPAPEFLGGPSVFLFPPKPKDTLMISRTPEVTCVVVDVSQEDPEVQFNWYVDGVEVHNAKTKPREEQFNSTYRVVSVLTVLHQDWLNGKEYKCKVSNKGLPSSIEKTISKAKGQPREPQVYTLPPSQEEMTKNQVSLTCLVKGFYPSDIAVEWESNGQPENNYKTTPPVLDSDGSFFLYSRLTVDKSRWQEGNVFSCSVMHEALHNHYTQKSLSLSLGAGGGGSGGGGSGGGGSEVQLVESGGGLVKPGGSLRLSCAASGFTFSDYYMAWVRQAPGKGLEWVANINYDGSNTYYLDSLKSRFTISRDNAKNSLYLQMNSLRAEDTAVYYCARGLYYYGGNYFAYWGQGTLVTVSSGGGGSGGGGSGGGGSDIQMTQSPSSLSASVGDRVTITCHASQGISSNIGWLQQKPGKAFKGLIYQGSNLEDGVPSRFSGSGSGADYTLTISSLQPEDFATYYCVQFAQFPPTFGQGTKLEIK
B7: bispecific antibody LB241 (bispecific antibody, human IgG4 S228P, kappa)
light: B5 light
heavy: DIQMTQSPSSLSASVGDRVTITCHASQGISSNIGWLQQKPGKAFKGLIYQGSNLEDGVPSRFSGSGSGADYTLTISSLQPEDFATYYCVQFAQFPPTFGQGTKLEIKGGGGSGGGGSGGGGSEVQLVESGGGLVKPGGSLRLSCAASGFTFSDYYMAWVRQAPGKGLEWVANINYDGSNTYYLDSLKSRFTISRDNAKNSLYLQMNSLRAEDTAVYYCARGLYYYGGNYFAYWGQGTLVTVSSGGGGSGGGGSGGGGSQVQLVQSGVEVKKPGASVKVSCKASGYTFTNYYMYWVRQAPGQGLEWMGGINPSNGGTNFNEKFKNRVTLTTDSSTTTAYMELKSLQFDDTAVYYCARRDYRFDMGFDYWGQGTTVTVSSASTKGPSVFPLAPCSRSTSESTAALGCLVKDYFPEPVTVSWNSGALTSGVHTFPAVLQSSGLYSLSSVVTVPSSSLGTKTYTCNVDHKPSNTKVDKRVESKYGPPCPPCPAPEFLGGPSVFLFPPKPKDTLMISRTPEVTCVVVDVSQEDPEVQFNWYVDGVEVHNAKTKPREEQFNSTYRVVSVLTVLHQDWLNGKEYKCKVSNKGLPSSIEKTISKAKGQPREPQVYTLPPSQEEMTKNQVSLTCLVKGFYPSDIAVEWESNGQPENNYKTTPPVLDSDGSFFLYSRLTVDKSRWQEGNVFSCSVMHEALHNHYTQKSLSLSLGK

The target in one assay is T1, human TIM-3 extracellular domain-human IgG1 Fc fusion protein (human, UniProt Q8TDQ0 22-199).
T1 construct: Made in house or bought (ACROBiosystems TM3-H5258); also called TIM-3-hFc; not shown: human IgG1 Fc
Description: ELISA. How it is done: Goat-anti-hFc (Jackson, 109-005-008) was diluted to a concentration of 1 μg/ml with PBS buffer (pH 7.4) and added to a 96-well microplate (Corning, CLS3590-100EA) at a volume of 50 μl/well, then incubated in an incubator at 37° C. for 2 hours (Or the antigen TIM-3 was directly used to coat the microplate with a concentration of 0.5 μg/ml, and then the antibody to be tested was directly added). After discarding the liquid, a blocking solution of 5% skimmed milk (skimmed milk powder purchased from Bright) diluted with PBS was added at 200 μl per well, and the microplate was incubated for 2.5 hours at 37° C. or overnight (16-18 hours) at 4° C. for blocking. The blocking solution was discarded, and the microplate was washed 5 times with PBST buffer (PBS with pH 7.4 containing 0.05% tween-20), then 50 μl/well of 0.5 μg/ml TIM-3-hFc (Example 1) was added and incubated for 2 hours in a 37° C. incubator. After incubation, the microplate was washed 6 times with PB ST. 50 μl/well of supernatant (containing testing antibody) or different concentrations of the antibody to be tested was added, and the microplate was incubated at 37° C. for 2 hours and washed 5 times with PBST. 50 μl/well of 1:2500 diluted HRP-labeled secondary antibody (Jackson Immuno Research, 115-035-003) was added to the microplate, incubating at 37° C. for 1 hour. After washing the microplate 5 times with PBST, 50 μl/well TMB chromogenic substrate (KPL, 52-00-03) was added to the microplate, followed by incubating at room temperature for 10-15 min.
In general terms: An ELISA detects its analyte on a solid surface through an enzyme-linked reagent.
With B1, the concentration for a half-maximal effect (EC50) (as a rule, the midpoint of the concentration-response curve) was 0.216 nM.

B2 displayed a concentration for a half-maximal effect (EC50) of 3.42 nM.

B3 had an EC50 of 3.52 nM.

Regarding B4, the concentration for a half-maximal effect (EC50) was 0.124 nM.

B5: the EC50 was 0.521 nM.

Take B6: a half-maximal effect (EC50) was put at 0.21 nM.

For the molecule B7, the concentration for a half-maximal effect (EC50) came out at 0.547 nM.

The target in the next assay is T1, human TIM-3 extracellular domain-human …. In words: ELISA, EC50 of bispecific over EC50 of the monoclonal control.
Turning to B1, the “Multiple of EC50 variation” value came to 1.36 ratio.

Turning to B2, the “Multiple of EC50 variation” value was 4.37 ratio.

With B3, the “Multiple of EC50 variation” value is 4.5 ratio.

For B4, the “Multiple of EC50 variation” value amounted to 0.78 ratio.

In the case of B5, the “Multiple of EC50 variation” value was 0.67 ratio.

Take B6: the “Multiple of EC50 variation” value came to 1.32 ratio.

B7: the “Multiple of EC50 variation” value worked out at 0.7 ratio.

The next assay deals with T2, human PD-1 extracellular domain protein expressed in Example 1 (tag not stated) (human, UniProt Q15116 25-170).
T2 construct: extracellular domain; also called PD-1 protein; not shown: human IgG1 Fc or his tag
Described as above. On the procedure: After washing the microplate 5 times with PBST, 50 μl/well TMB chromogenic substrate (KPL, 52-00-03) was added to the microplate, followed by incubating at room temperature for 10-15 min.
(§1) PD-1 expressed in Example 1 was diluted to a concentration of 1 μg/ml with PBS buffer, pH 7.4, and added to a 96-well microplate (Corning, CLS3590-100EA) at 50 μl per well, thereby incubating in an incubator at 37° C. for 2 hours. After discarding the liquid, a blocking solution of 5% skimmed milk (Shanghai Shenggong Biological Engineering Co., Ltd., A600669-0250) diluted with PBS was added at 200 μl per well, followed by incubating at 37° C. for 3 hours or 4° C. overnight (16-18 hours)) for blocking. Subsequently, the blocking solution was discarded, and the microplate was washed 5 times with PBST buffer (pH 7.4 PBS containing 0.05% tween-20). […] Subsequently, the microplate was washed 5 times with PBST, then 50 μl/well of 1:2500 diluted HRP-labeled secondary antibody (Jackson Immuno Research, 115-035-003) was added, thereby incubating at 37° C. for 1 hour. After washing the microplate 5 times with PBST, 50 μl/well TMB chromogenic substrate (KPL, 52-00-03) was added, then incubated at room temperature for 5-10 min. Finally, 50 μl/well of 1M H₂SO₄ was added to stop the reaction. […] Go microplate reader (ThermoFisher, 51119200) was used to read the absorption value at 450 nm and the EC50 based on the OD value was calculated.
In the case of B1, the “Multiple of EC50 variation” value was determined as 0.81 ratio.

With B2, the “Multiple of EC50 variation” value worked out at 0.82 ratio.

As to B3, the “Multiple of EC50 variation” value is 0.47 ratio.

Regarding B4, the “Multiple of EC50 variation” value is 0.32 ratio.

Consider B5, for which the “Multiple of EC50 variation” value was determined as 0.69 ratio.

For B6, the “Multiple of EC50 variation” value worked out at 0.68 ratio.

For the molecule B7, the “Multiple of EC50 variation” value was determined as 3.8 ratio.

The target of the next assay is T2, human PD-1 extracellular domain protein …. Description: ELISA, PD-1 coated. How it is done: as §1
Turning to B1, the concentration giving a half-maximal response (EC50) amounted to 0.214 nM.

For the molecule B2, the response was half-maximal at 0.079 nM (EC50).

For the molecule B3, the half-maximal effective concentration (EC50) was 0.045 nM.

B4 showed an EC50 of 0.084 nM.

With B5, the EC50 was found to be 0.066 nM.

Turning to B6, it took 0.18 nM to reach a half-maximal effect (EC50).

B7: the EC50 was determined as 0.365 nM.
